Experiments:
[1] = molecular target: V3 loop-deleted (Δ297-329) HIV-1IIIB env glycoprotein expressed by vv-7ΔV3 (HIV-1 IIIB isolate) (UniProt P04578); assay: cell-based or functional assay
[2] = molecular target: CD4 receptor on CD4+ cells (SupT-1 cells; IL-2-dependent CD4+ T lymphocytes) (UniProt P01730); assay: cell-based or functional assay

In the case of “F105, human mAb directed against a discontinuous gp120 epitope overlapping the CD4 binding site (antibody)”, the ADCC specific lysis (51Cr release, E:T 50:1) [1] is reported as less than 4%.

Substance “V3 loop-deleted (Δ297-329) HIV-1IIIB env glycoprotein expressed by vv-7ΔV3 (from UniProt P04578 33-296; P04578 330-856)” has an activation-induced apoptosis of CD4+ T lymphocytes (fragmented DNA, PI, 72 hrs) [2] of less than 7%.

“full-length (wild-type) HIV-1IIIB env glycoprotein expressed by vv-WTP-2 (from UniProt P04578 33-856)” was tested, and the apoptotic cells (sub-G1 DNA content, PI staining) in infected SupT-1 cells, 16 hr [2] was 20% and the syncytium formation in infected SupT-1 cells [2] was 80 to 90%.

From US20020182180A1
